Laboratory results reported in paper PMC9166816, “RNF219 regulates CCR4-NOT function in mRNA translation and deadenylation” (Scientific Reports, 2022).

Biological target: CCR4-NOT complex (human (endogenous in human cell lines), UniProt A5YKK6 1-2376; Q9NZN8 1-540; O75175 1-753; Q9H9A5 1-744; Q9UKZ1 1-510)
Assay: cell-based or functional assay

B1: lambdaN-peptide and HA-tagged RNF219 (NHA-RNF219) (natural protein)
chain: MAQTVQNVTLSLTLPITCHICLGKVRQPVICINNHVFCSICIDLWLKNNSQCPACRVPITPENPCKEIIGGTSESEPMLSHTVRKHLRKTRLELLHKEYEDEIDCLQKEVEELKSKNLSLESQIKTILDPLTLVQGNQNEDKHLVTDNPSKINPETVAEWKKKLRTANEIYEKVKDDVDKLKEANKKLKLENGGLVRENLRLKAEVDNRSPQKFGRFAVAALQSKVEQYERETNRLKKALERSDKYIEELESQVAQLKNSSEEKEAMNSICQTALSADGKGSKGSEEDVVSKNQGDSARKQPGSSTSSSSHLAKPSSSRLCDTSSARQESTSKADLNCSKNKDLYQEQVEVMLDVTDTSMDTYLEREWGNKPSDCVPYKDEELYDLPAPCTPLSLSCLQLSTPENRESSVVQAGGSKKHSNHLRKLVFDDFCDSSNVSNKDSSEDDISRSENEKKSECFSSPKTGFWDCCSTSYAQNLDFESSEGNTIANSVGEISSKLSEKSGLCLSKRLNSIRSFEMNRTRTSSEASMDAAYLDKISELDSMMSESDNSKSPCNNGFKSLDLDGLSKSSQGSEFLEEPDKLEEKTELNLSKGSLTNDQLENGSEWKPTSFFLLSPSDQEMNEDFSLHSSSCPVTNEIKPPSCLFQTEFSQGILLSSSHRLFEDQRFGSSLFKMSSEMHSLHNHLQSPWSTSFVPEKRNKNVNQSTKRKIQSSLSSASPSKATKS
Renilla/Firefly luciferase ratio (RL/FL) of the 5BoxB reporter with tethered NHA-RNF219: 0.307 RL/FL ratio

B2: RNF219-Id, CCR4-NOT complex interaction defective RNF219 allele (natural protein)
chain: MAQTVQNVTLSLTLPITCHICLGKVRQPVICINNHVFCSICIDLWLKNNSQCPACRVPITPENPCKEIIGGTSESEPMLSHTVRKHLRKTRLELLHKEYEDEIDCLQKEVEELKSKNLSLESQIKTILDPLTLVQGNQNEDKHLVTDNPSKINPETVAEWKKKLRTANEIYEKVKDDVDKLKEANKKLKLENGGLVRENLRLKAEVDNRSPQKFGRFAVAALQSKVEQYERETNRLKKALERSDKYIEELESQVAQLKNSSEEKEAMNSICQTALSADGKGSKGSEEDVVSKNQGDSARKQPGSSTSSSSHLAKPSSSRLCDTSSARQESTSKADLNCSKNKDLYQEQVEVMLDVTDTSMDTYLEREWGNKPSDCVPYKDEELYDLPAPCTPLSLSCLQLSTPENRESSVVQAGGSKKHSNHLRKLVFDDFCDSSNVSNKDSSEDDISRSENEKKSECFSSPKTGFWDCCSTSYAQNLDFESSEGNTIANSVGEISSKLSEKSGLCLSKRLNSIRSFEMNRTRTSSEASMDAAYLDKISVENSKSPCNNGFKSLDLDGLSKSSQGSEFLEEPDKLEEKTELNLSKGSLTNDQLENGSEWKPTSFFLLSPSDQEMNEDFSLHSSSCPVTNEIKPPSCLFQTEFSQGILLSSSHRLFEDQRFGSSLFKMSSEMHSLHNHLQSPWSTSFVPEKRNKNVNQSTKRKIQSSLSSASPSKATKS
Renilla/Firefly luciferase ratio (RL/FL) of the 5BoxB reporter with tethered NHA-RNF219-Id (lambdaN-HA tagged form of the allele): 1.5 RL/FL ratio
